# Molecular target: SARS-CoV-2 Spike receptor-binding domain (SARS-CoV-2) (UniProt P0DTC2)
# Experiment: AUC
substance,measurement,value
SARS-CoV-2 Spike receptor-binding domain (from UniProt P0DTC2) (domain or fragment),stoichiometry N,2

# From PMC8279307
